Assay results reported in patent US20120219547A1 (LIVZON MABPHARM, published 2012).

Assays:
[1] = target: T1, recombinant human tumor necrosis factor-α (human, UniProt P01375 77-233); assay: cell-based or functional assay
[2] = target: T1, recombinant human tumor necrosis …; assay: competition ELISA, rhTNF coated on plate, competitor HRP-labeled humira; given in µg/mL
Method: The anti-hTNFα human antibody humira marked with horseradish peroxidase (HRP) was used as a reagent. Elisa plates were coated with rhTNF (50 μl of […]), and left overnight at room temperature. The coating solution was discarded, and each well was blocked with 1% skim milk in phosphate buffered saline (PBS) for about 0.5 hours, and washed with PBS containing 0.05% Tween 20. And then a mixture of 50 μl of growth medium and 50 μl of HRP labeled humira was added to each well. Unlabeled humira and antibody-free medium were used as positive and negative controls. […] The wells in which the binding of HRP-labeled humira and rhTNFα was inhibited Kong were amplified and subcloned, followed by analysis of several mouse monoclonal antibodies which show the inhibition effects, and finally hybridoma cells were screened out. The hybridoma cells were intermediate cultured, and the supernatant was taken for purification, and the mouse monoclonal antibody TM2-11-12 and TM2-6-3. The purified mouse monoclonal antibodies TM2-11-12 and TM2-6-3 were tested in competition binding assays. Even at the concentration up to 1 μg/mL, the mouse antibody TM2-6-3 only competed out about 50% of the binding of humira to hTNFα.

[3] = target: T1, recombinant human tumor necrosis …; assay: SPR, Biacore X100; antibody captured by goat anti-human IgG Fc on CM5 chip, TNFα as analyte
Method: AT132 affinity was determined by Biacore X100, and analyzed with Biacore X100 kinetics/affinity analysis software. Using indirect capture method, goat anti-human IgG Fc polyclonal antibody was coupled to the surface of CM5 chip as a capture molecule by using Amine Coupling Kit. By calculation, AT132 and Humira as control were respectively diluted to a a certain concentration to be lately used as ligand, and TNFα as the analyte. Analytes were diluted to 5 concentrations, and each concentration as a cycle. First, using HBS-EP buffer to run for three cycles, designing an analyte concentration of 0 concentration to run for two cycles, and finally, designing a repeat analyte concentration to run for a cycle. The whole process ran 11 cycles, and each cycle can draw a curve. The dynamics/affinity data of the measured antibody and humira were analyzed by Biacore X100 kinetics/affinity analysis software.

monkey TNFα = monkey TNFα (monkey); assay: ELISA, TNFα coated on plate (5 ng/well), HRP-labeled anti-human Fc detection, four-parameter fit
Method: (§1) On a plate, respectively coat recombinant human TNFα 5 ng/well, mouse TNFα 25 ng/well, and monkey TNFα 5 ng/well at room temperature, and blocked for 1 h, washed. And then 1.8-fold gradient dilutions of AT132 was added with an initial concentration of 250 ng/mL, and incubated at 25° C. for 2 h, washed, HRP-labeled anti-human Fc antibody added, and incubated at room temperature for 1 h, washed, and the substrate solution added as 100 μl/well, placed in dark at 37° C. for 30 min. In accordance with the order of the added color reagents, 0.2 M H₂SO₄, 50 μl/well was added to terminate the reaction. Within about 5 minutes after termination, OD values were test at 450 nm/630 nm on a microplate reader, and median effective concentrations were obtained by four-parameter fitting. Compare the binding activities of AT132 to different sources of TNFα.

mouse TNFα [4] = target: T2, mouse TNFα (mouse, UniProt P06804 80-235); assay: ELISA, TNFα coated on plate, HRP-labeled anti-human Fc detection
T2 sequence (looked up): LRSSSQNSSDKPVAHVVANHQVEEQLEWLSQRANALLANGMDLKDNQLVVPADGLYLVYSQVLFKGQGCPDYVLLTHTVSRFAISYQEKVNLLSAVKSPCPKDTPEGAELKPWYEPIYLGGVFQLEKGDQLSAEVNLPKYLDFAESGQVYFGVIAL
Method: as §1

mouse TNFα [5] = target: T2, mouse TNFα; assay: ELISA, TNFα coated on plate (mouse 25 ng/well, human 5 ng/well), HRP-labeled anti-human Fc detection; calculated from coating and sample concentrations
Method: as §1

T1 sequence (P01375 77-233 limits assumed): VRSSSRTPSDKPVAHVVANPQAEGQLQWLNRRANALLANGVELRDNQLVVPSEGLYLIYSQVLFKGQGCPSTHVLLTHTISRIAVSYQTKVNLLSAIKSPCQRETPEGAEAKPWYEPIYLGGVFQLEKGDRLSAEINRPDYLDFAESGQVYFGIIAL

B1: AT135 humanized anti-TNFα antibody (antibody, human IgG1, V domains shown)
VH: QVQLVQSGPELKKPGASVKISCKASGYTFTHYGMHWVKQTPGRGLKWVGWINTYTGEPTYDADFQGRFTFSLDTSVSTAFLQINSLKDEDLAVYFCARYDFDGFDYWGQGTTLTVSS
VL: ENVLTQSPPILSASPGERVTMTCRASSSITFNYLHWYQQKSGDSPKVWIYSTSNLVSGVPSRFSGSGSGTSYSLTISSLEAEDAATYYCQQYSDYPYTFGGGTKLEIK
[1]
  EC50(ng/mL), neutralization of TNFα killing effect on L929 cell: 50 ng/mL

B2: AT143 humanized anti-TNFα antibody (antibody, human IgG1, V domains shown)
VH: QVQLVQSGPELKKPGESVKISCKASGYTFTHYGMHWVKQTPGRGLKWVGWINTYTGEPTYDADFQGRFTFSLETSTSTAYLQINSLKDEDLATYFCARYDFDGFDYWGQGTTLTVSS
VL: ENVLTQSPPIMSASPGERVTMTCRASSSITFNYLHWYQQKSGDSPKVLIYSTSNLVSGVPSRFSGSGSGTSYSLTISSVEAEDAATYYCQQYSDYPYTFGGGTKLEIK
[1]
  EC50(ng/mL), neutralization of TNFα killing effect on L929 cell: 39.8 ng/mL

B3: AT151 humanized anti-TNFα antibody (antibody, human IgG1, V domains shown)
VH: QVQLVQSGPELKKPGASVKISCKASGYTFTHYGMHWVKQTPGRGLKWVGWINTYTGEPTYDADFQGRFTFSLETSVSTAFLQINSLKDEDLATYFCARYDFDGFDYWGQGTTLTVSS
VL: ENVLTQSPPILSASPGEEVTMTCRASSSITFNYLHWYQQKSGDSPKVWIYSTSNLVSGVPARFSGSGSGTSYSLTISSLEAEDFATYYCQQYSDYPYTFGGGTKLEIK
[1]
  EC50(ng/mL), neutralization of TNFα killing effect on L929 cell: 42.1 ng/mL

B4: AT164 humanized anti-TNFα antibody (antibody, human IgG1, V domains shown)
VH: QVQLVQSGPELKKPGASVKISCKASGYTFTHYGMHWVKQTPGRGLKWVGWINTYTGEPTYDADFQGRFTFSLDTSVSTAFLQINSLKDEDLAVYFCARYDFDGFDYWGQGTTLTVSS
VL: ENVLTQSPPIMSASPGERVTMTCRASSSITFNYLHWYQQKSGDSPKVLIYSTSNLVSGVPSRFSGSGSGTSYSLTISSVEAEDAATYYCQQYSDYPYTFGGGTKLEIK
[1]
  EC50(ng/mL), neutralization of TNFα killing effect on L929 cell: 45.5 ng/mL

B5: mouse monoclonal antibody TM2-11-12 (antibody, mouse IgG1, V domains shown)
VH: QVQLVQSGPELKKPGETVKISCKASGYTFTHYGMHWVKQTPGRSLKWVGWINTYTGEPTYDADFQGRFTFSLETSTSTAFLQINTLKDEDLATYFCARYDFDGFDYWGQGTTLTVSS
VL: ENVLTQSPPIMSASPGEEVTMTCRASSSITFNYLHWYQQKSGDSPKVWIYSTSNLVSGVPARFSGSGSGTSYSLTISSVEAEDAATYYCQQYSDYPYTFGGGTKLEIK
notes: Purified from hybridoma supernatant; The cloning primers are antisense to the mouse IgG1 heavy chain and mouse kappa light chain constant regions; also called anti-hTNFα mouse antibody TM2-11-12
[2]
  IC50: ~0.05 µg/mL

B6: AT132 humanized anti-TNFα monoclonal antibody (antibody, human IgG1, V domains shown)
VH: QVQLVQSGPELKKPGASVKISCKASGYTFTHYGMHWVKQTPGRGLKWVGWINTYTGEPTYDADFQGRFTFSLETSVSTAFLQINSLKDEDLATYFCARYDFDGFDYWGQGTTLTVSS
VL: ENVLTQSPPILSASPGERVTMTCRASSSITFNYLHWYQQKSGDSPKVWIYSTSNLVSGVPSRFSGSGSGTSYSLTISSLEAEDAATYYCQQYSDYPYTFGGGTKLEIK
notes: also called E001VH/F001VL
[3]
  Ka: 8.4e+10 M⁻¹
  Kd: 0.0119 nM
[1]
  EC50(ng/mL), neutralization of TNFα killing effect on L929 cell: 20.4 ng/mL
Monkey TNFα
  binding activity relative to human TNFα: ~50%
Mouse TNFα [4]
  binding result: no binding
Mouse TNFα [5]
  fold lower binding activity than to human TNFα: 1000 times lower
